# Publication PMC8016129, “Switching the substrate specificity of lysoplasmalogen‐specific phospholipase D” (FEBS Open Bio, 2021)
# Positions count from the first letter of the chain named. Names and notes keep the numbering of the source.
# B1: LyPls-PLD (lysoplasmalogen-specific phospholipase D) (Thermocrispum sp. RD004668; F211L) (protein)
# chain: TTRTTDNPWLDARVLNMAHAGGENEAPANTLYAFKRAVKLGANMLELDVQSTKDDQLVVIHNATVDQTTDGTGKVRDLTFEQVHELDAAYNFIPGRHAVPGEPPESYPLRGVRTGEKKPPPGYQPSDFAIPKLADVLEAFPRTPINIEIKGTSDADIPSFLHNAKLLARLLKKTGRTDFIVTSLNDLAVAKFHLLAPDIPIAPGMAGLAAYFLLGVKPMHGTVALQIPVRYQGLEIATPEFIRRAHADGYAVHVWFSGTAPDDEATYNRIIDSCADGLMPAYPALLERILDERGIERPGRPGVDPCG
# notes: recombinant from pET24/lpls-pld in E. coli BL21(DE3); purified on HisTrap HP
# B2: LyPls-PLD (lysoplasmalogen-specific phospholipase D) (Thermocrispum sp. RD004668; M71G) (protein)
# chain: B1 chain with M44G, L184F
# notes: as for B1
# B3: LyPls-PLD (lysoplasmalogen-specific phospholipase D) (Thermocrispum sp. RD004668; F211T) (protein)
# chain: B1 chain with L184T
# notes: as for B1
# B4: LyPls-PLD (lysoplasmalogen-specific phospholipase D) (Thermocrispum sp. RD004668) (protein)
# chain: B1 chain with L184F
# notes: as for B1
# B5: LyPls-PLD (lysoplasmalogen-specific phospholipase D) (Thermocrispum sp. RD004668; W282G) (protein)
# chain: B1 chain with L184F, W255G
# notes: as for B1
# B6: LyPls-PLD (lysoplasmalogen-specific phospholipase D) (Thermocrispum sp. RD004668; F211C) (protein)
# chain: B1 chain with L184C
# notes: as for B1
# B7: LyPls-PLD (lysoplasmalogen-specific phospholipase D) (Thermocrispum sp. RD004668; N173A) (protein)
# chain: B1 chain with N146A, L184F
# notes: as for B1
# What was measured:
# [1] = substrate: CCCCCCCCCCCCCCCC/C=C\OC[C@@H](O)COP(=O)([O-])OCC[N+](C)(C)C; experiment: released choline by choline oxidase/peroxidase colorimetric assay, Michaelis-Menten fit; type: biochemical, Thermocrispum sp. RD004668; conditions: pH 8.0, 50 °C, 1 min, 2 mM CaCl2, substrate micelles
# Source text: (§1) released choline by choline oxidase/peroxidase colorimetric assay, Michaelis-Menten fit on LyPls-PLD (lysoplasmalogen-specific phospholipase D)
# [2] = substrate: CCCCCCCCCCCCCCCCOC[C@@H](O)COP(=O)([O-])OCC[N+](C)(C)C; experiment: as above; type: biochemical, Thermocrispum sp. RD004668; conditions: pH 8.0, 50 °C, 1 min, 2 mM CaCl2, substrate micelles
# Source text: as §1
Protein,Km [1],kcat [1],kcat/Km [1],Km [2],kcat [2],kcat/Km [2]
B1,76.7 ± 12.6 µM,21 ± 0.91 s⁻¹,271000 ± 46000 M⁻¹ s⁻¹,26.8 ± 8.55 µM,187 ± 6.3 s⁻¹,6.97e+06 ± 2.24e+06 M⁻¹ s⁻¹
B2,64.8 ± 4.18 µM,57 ± 2.5 s⁻¹,880000 ± 68500 M⁻¹ s⁻¹,69.3 ± 10.2 µM,72 ± 2.9 s⁻¹,1.04e+06 ± 159000 M⁻¹ s⁻¹
B3,,,,40.6 ± 5.49 µM,205 ± 8.9 s⁻¹,5.06e+06 ± 720000 M⁻¹ s⁻¹
B4,88.9 ± 8.76 µM,122 ± 3.47 s⁻¹,1.37e+06 ± 141000 M⁻¹ s⁻¹,56.4 ± 16.9 µM,74 ± 4.9 s⁻¹,1.3e+06 ± 400000 M⁻¹ s⁻¹
B5,286 ± 51.7 µM,10.5 ± 0.95 s⁻¹,36000 ± 7250 M⁻¹ s⁻¹,71.7 ± 5.26 µM,4.4 ± 0.082 s⁻¹,60900 ± 4630 M⁻¹ s⁻¹
B6,,,,52.2 ± 9.44 µM,207 ± 15 s⁻¹,3.96e+06 ± 769000 M⁻¹ s⁻¹
B7,200 ± 42.3 µM,42 ± 3.9 s⁻¹,212000 ± 49000 M⁻¹ s⁻¹,110 ± 17.1 µM,106 ± 4.0 s⁻¹,965000 ± 153000 M⁻¹ s⁻¹
